Results from paper PMC9482650, “Quantitative fragmentomics allow affinity mapping of interactomes” (Nature Communications, 2022).

Legend:
Assay in all cases: holdup assay
Set-up in all cases: key: below the threshold = too weak to quantify, mostly under pKd 3.1 to 4
APBA1_2, Q02410 = target: T1, APBA1_2, Q02410
T1 sequence (Q02410 742-832, limits assumed, looked up): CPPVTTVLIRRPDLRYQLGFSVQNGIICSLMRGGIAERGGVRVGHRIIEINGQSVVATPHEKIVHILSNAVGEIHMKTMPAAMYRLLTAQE

APBA2_2, Q99767 = target: T2, APBA2_2, Q99767
T2 sequence (Q99767 654-744, limits assumed, looked up): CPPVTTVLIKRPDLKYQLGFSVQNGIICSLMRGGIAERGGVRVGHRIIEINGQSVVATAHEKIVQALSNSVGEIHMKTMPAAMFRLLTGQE

ARHGAP21, Q5T5U3 = target: T3, ARHGAP21, Q5T5U3
T3 sequence (Q5T5U3 45-169, limits assumed, looked up): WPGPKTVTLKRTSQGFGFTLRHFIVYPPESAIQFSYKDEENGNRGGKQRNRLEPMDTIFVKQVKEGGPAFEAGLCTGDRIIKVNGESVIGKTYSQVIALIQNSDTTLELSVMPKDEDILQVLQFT

DLG1_1, Q12959 = target: DLG1_1, Q12959
DLG4_2, P78352 = target: DLG4_2, P78352
FRMPD4, Q14CM0 = target: FRMPD4, Q14CM0
GRID2IP_2, A4D2P6 = target: GRID2IP_2, A4D2P6
GRIP2_3, Q9C0E4 = target: GRIP2_3, Q9C0E4
GRIP2_4, Q9C0E4 = target: GRIP2_4, Q9C0E4
GRIP2_5, Q9C0E4 = target: GRIP2_5, Q9C0E4
GRIP2_6, Q9C0E4 = target: GRIP2_6, Q9C0E4
IL16_1, Q14005 = target: IL16_1, Q14005
IL16_3, Q14005 = target: IL16_3, Q14005
Inadl_10, Q8NI35 = target: Inadl_10, Q8NI35
LNX1_1, Q8TBB1 = target: LNX1_1, Q8TBB1
LNX1_3, Q8TBB1 = target: LNX1_3, Q8TBB1
LNX2_3, Q8N448 = target: T4, LNX2_3, Q8N448
T4 sequence (Q8N448 463-564, limits assumed, looked up): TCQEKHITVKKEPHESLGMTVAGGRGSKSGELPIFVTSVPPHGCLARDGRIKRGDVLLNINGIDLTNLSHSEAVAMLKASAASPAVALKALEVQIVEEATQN

MAGI2_4, Q86UL8 = target: MAGI2_4, Q86UL8
MAGI2_5, Q86UL8 = target: MAGI2_5, Q86UL8
MPP2, Q14168 = target: T5, MPP2, Q14168
T5 sequence (Q14168 180-250, limits assumed, looked up): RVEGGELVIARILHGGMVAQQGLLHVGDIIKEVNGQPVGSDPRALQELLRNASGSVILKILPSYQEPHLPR

MPP7, Q5T2T1 = target: T6, MPP7, Q5T2T1
T6 sequence (Q5T2T1 134-230, limits assumed, looked up): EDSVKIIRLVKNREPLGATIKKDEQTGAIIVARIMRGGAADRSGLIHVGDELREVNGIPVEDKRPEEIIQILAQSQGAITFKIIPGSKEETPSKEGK

NHERF3_1, Q5T2W1 = target: T7, NHERF3_1, Q5T2W1
T7 sequence (Q5T2W1 4-100, limits assumed, looked up): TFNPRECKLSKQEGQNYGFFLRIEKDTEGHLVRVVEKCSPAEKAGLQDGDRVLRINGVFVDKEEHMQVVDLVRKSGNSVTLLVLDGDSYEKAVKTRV

PCLO, Q9Y6V0 = target: T8, PCLO, Q9Y6V0
T8 sequence (Q9Y6V0 4491-4600, limits assumed, looked up): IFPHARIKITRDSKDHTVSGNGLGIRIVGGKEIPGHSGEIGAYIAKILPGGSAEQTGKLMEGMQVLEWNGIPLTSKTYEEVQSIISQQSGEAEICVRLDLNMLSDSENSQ

PDZRN3_1, Q9UPQ7 = target: T9, PDZRN3_1, Q9UPQ7
T9 sequence (Q9UPQ7 244-349, limits assumed, looked up): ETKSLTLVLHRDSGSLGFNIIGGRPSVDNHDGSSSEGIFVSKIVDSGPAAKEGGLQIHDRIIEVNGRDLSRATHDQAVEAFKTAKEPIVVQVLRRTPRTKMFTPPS

PTPN3, P26045 = target: PTPN3, P26045
SCRIB_3, Q14160 = target: SCRIB_3, Q14160
SNTG1, Q9NSN8 = target: T10, SNTG1, Q9NSN8
T10 sequence (Q9NSN8 52-150, limits assumed, looked up): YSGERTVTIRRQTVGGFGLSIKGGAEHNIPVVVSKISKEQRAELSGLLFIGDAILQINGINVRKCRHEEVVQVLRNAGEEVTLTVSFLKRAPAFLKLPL

TJP1_3, Q07157 = target: TJP1_3, Q07157
[1] = plain residues with an end cap or a label only (N-terminal biotin on a linker: ado-ado)
[2] = modified: phospho on T at position -2 from the C-terminal residue

PTPN3, P26045, sequence (P26045 505-587): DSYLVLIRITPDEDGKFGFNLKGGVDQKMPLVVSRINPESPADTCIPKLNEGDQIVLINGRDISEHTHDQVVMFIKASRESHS
IL16_3, Q14005, sequence (Q14005 1107-1207): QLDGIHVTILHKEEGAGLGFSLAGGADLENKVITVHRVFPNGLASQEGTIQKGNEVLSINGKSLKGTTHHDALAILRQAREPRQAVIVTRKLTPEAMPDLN
GRIP2_4, Q9C0E4, sequence (Q9C0E4 446-548): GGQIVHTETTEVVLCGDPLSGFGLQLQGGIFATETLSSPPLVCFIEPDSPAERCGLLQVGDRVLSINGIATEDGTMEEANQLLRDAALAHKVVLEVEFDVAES
DLG4_2, P78352, sequence (P78352 155-259): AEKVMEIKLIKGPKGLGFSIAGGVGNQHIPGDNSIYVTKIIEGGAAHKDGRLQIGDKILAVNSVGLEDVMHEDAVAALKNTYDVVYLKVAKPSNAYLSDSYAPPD
IL16_1, Q14005, sequence (Q14005 210-306): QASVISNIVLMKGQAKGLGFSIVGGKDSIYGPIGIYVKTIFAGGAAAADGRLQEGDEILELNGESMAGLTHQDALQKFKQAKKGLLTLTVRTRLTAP
FRMPD4, Q14CM0, sequence (Q14CM0 67-160): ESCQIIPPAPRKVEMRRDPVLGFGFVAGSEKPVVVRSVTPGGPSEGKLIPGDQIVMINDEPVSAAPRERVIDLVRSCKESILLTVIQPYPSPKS
Inadl_10, Q8NI35, sequence (Q8NI35 1673-1763): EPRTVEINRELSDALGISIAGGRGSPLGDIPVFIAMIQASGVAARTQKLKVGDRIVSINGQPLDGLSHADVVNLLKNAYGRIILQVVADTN
MAGI2_4, Q86UL8, sequence (Q86UL8 772-865): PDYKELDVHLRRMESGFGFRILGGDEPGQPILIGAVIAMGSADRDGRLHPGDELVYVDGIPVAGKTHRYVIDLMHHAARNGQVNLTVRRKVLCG
MAGI2_5, Q86UL8, sequence (Q86UL8 915-1017): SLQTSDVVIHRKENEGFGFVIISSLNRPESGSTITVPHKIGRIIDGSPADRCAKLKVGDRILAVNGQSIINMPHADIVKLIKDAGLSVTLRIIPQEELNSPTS
LNX1_3, Q8TBB1, sequence (Q8TBB1 500-596): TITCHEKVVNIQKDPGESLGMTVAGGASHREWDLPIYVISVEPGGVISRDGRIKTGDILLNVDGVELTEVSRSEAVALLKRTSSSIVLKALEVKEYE
GRIP2_3, Q9C0E4, sequence (Q9C0E4 238-339): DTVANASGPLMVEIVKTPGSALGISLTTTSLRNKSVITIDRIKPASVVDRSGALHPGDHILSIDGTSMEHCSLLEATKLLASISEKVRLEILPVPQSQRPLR
GRID2IP_2, A4D2P6, sequence (A4D2P6 272-370): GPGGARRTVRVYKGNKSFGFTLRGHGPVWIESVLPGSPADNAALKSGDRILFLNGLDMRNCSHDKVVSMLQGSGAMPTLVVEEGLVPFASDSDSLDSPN
LNX1_1, Q8TBB1, sequence (Q8TBB1 261-371): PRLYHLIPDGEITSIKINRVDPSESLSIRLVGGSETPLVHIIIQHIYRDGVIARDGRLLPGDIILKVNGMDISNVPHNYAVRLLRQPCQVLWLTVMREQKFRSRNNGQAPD
GRIP2_5, Q9C0E4, sequence (Q9C0E4 544-642): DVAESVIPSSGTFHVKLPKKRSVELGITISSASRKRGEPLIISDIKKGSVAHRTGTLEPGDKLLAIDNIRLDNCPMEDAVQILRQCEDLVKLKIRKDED
TJP1_3, Q07157, sequence (Q07157 416-512): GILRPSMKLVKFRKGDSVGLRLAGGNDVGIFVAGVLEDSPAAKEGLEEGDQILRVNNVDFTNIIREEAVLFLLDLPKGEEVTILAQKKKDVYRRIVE
GRIP2_6, Q9C0E4, sequence (Q9C0E4 648-740): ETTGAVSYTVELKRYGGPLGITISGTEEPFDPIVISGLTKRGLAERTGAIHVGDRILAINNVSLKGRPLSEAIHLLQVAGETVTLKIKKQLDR
SCRIB_3, Q14160, sequence (Q14160 999-1103): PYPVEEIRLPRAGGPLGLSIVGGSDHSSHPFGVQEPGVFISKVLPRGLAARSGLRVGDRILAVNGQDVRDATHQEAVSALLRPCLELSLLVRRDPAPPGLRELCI

MQHQRTHTRV [ZSCAN30, Q86W11]
pKd (APBA1_2, Q02410; [1]): 3.52 | pKd (APBA2_2, Q99767; [1]): below the threshold | pKd (ARHGAP21, Q5T5U3; [1]): 3.92 | pKd (DLG1_1, Q12959; [1]): 4.41 | pKd (DLG4_2, P78352; [1]): 4.95 | pKd (FRMPD4, Q14CM0; [1]): below the threshold | pKd (GRID2IP_2, A4D2P6; [1]): 3.77 | pKd (GRIP2_3, Q9C0E4; [1]): below the threshold | pKd (GRIP2_4, Q9C0E4; [1]): below the threshold | pKd (GRIP2_5, Q9C0E4; [1]): below the threshold | pKd (GRIP2_6, Q9C0E4; [1]): below the threshold | pKd (IL16_1, Q14005; [1]): below the threshold | pKd (IL16_3, Q14005; [1]): below the threshold | pKd (Inadl_10, Q8NI35; [1]): below the threshold | pKd (LNX1_1, Q8TBB1; [1]): 3.49 | pKd (LNX1_3, Q8TBB1; [1]): 3.53 | pKd (LNX2_3, Q8N448; [1]): below the threshold | pKd (MAGI2_4, Q86UL8; [1]): 3.49 | pKd (MAGI2_5, Q86UL8; [1]): 3.64 | pKd (MPP2, Q14168; [1]): below the threshold | pKd (MPP7, Q5T2T1; [1]): below the threshold | pKd (NHERF3_1, Q5T2W1; [1]): 4 | pKd (PCLO, Q9Y6V0; [1]): below the threshold | pKd (PDZRN3_1, Q9UPQ7; [1]): below the threshold | pKd (PTPN3, P26045; [1]): below the threshold | pKd (SCRIB_3, Q14160; [1]): 3.51 | pKd (SNTG1, Q9NSN8; [1]): below the threshold | pKd (TJP1_3, Q07157; [1]): below the threshold

RQKEVRESKC [SCN8A, Q9UQD0]
pKd (APBA1_2, Q02410; [1]): below the threshold | pKd (APBA2_2, Q99767; [1]): below the threshold | pKd (ARHGAP21, Q5T5U3; [1]): below the threshold | pKd (DLG1_1, Q12959; [1]): below the threshold | pKd (DLG4_2, P78352; [1]): 3.52 | pKd (FRMPD4, Q14CM0; [1]): below the threshold | pKd (GRID2IP_2, A4D2P6; [1]): 3.69 | pKd (GRIP2_3, Q9C0E4; [1]): below the threshold | pKd (GRIP2_4, Q9C0E4; [1]): below the threshold | pKd (GRIP2_5, Q9C0E4; [1]): below the threshold | pKd (GRIP2_6, Q9C0E4; [1]): below the threshold | pKd (IL16_1, Q14005; [1]): 3.7 | pKd (IL16_3, Q14005; [1]): below the threshold | pKd (Inadl_10, Q8NI35; [1]): below the threshold | pKd (LNX1_1, Q8TBB1; [1]): below the threshold | pKd (LNX1_3, Q8TBB1; [1]): below the threshold | pKd (LNX2_3, Q8N448; [1]): below the threshold | pKd (MAGI2_4, Q86UL8; [1]): below the threshold | pKd (MAGI2_5, Q86UL8; [1]): 3.61 | pKd (MPP2, Q14168; [1]): below the threshold | pKd (MPP7, Q5T2T1; [1]): below the threshold | pKd (NHERF3_1, Q5T2W1; [1]): 4.71 | pKd (PCLO, Q9Y6V0; [1]): below the threshold | pKd (PDZRN3_1, Q9UPQ7; [1]): 4.02 | pKd (PTPN3, P26045; [1]): 4.6 | pKd (SCRIB_3, Q14160; [1]): 4.16 | pKd (SNTG1, Q9NSN8; [1]): 3.77 | pKd (TJP1_3, Q07157; [1]): below the threshold

EDGESWEYQI [TRPV6, Q9H1D0]
pKd (APBA1_2, Q02410; [1]): below the threshold | pKd (APBA2_2, Q99767; [1]): below the threshold | pKd (ARHGAP21, Q5T5U3; [1]): 3.57 | pKd (DLG1_1, Q12959; [1]): below the threshold | pKd (DLG4_2, P78352; [1]): below the threshold | pKd (FRMPD4, Q14CM0; [1]): 3.73 | pKd (GRID2IP_2, A4D2P6; [1]): below the threshold | pKd (GRIP2_3, Q9C0E4; [1]): below the threshold | pKd (GRIP2_4, Q9C0E4; [1]): below the threshold | pKd (GRIP2_5, Q9C0E4; [1]): below the threshold | pKd (GRIP2_6, Q9C0E4; [1]): 3.8 | pKd (IL16_1, Q14005; [1]): below the threshold | pKd (IL16_3, Q14005; [1]): below the threshold | pKd (Inadl_10, Q8NI35; [1]): below the threshold | pKd (LNX1_1, Q8TBB1; [1]): below the threshold | pKd (LNX1_3, Q8TBB1; [1]): 3.52 | pKd (LNX2_3, Q8N448; [1]): below the threshold | pKd (MAGI2_4, Q86UL8; [1]): below the threshold | pKd (MAGI2_5, Q86UL8; [1]): below the threshold | pKd (MPP2, Q14168; [1]): 3.57 | pKd (MPP7, Q5T2T1; [1]): 5.06 | pKd (NHERF3_1, Q5T2W1; [1]): below the threshold | pKd (PCLO, Q9Y6V0; [1]): below the threshold | pKd (PDZRN3_1, Q9UPQ7; [1]): below the threshold | pKd (PTPN3, P26045; [1]): 4.13 | pKd (SCRIB_3, Q14160; [1]): 4.11 | pKd (SNTG1, Q9NSN8; [1]): 3.82 | pKd (TJP1_3, Q07157; [1]): below the threshold

SSRTRRETQL [HPV16-E6_-2P, P03126]
pKd (APBA1_2, Q02410; [2]): below the threshold | pKd (APBA2_2, Q99767; [2]): below the threshold | pKd (ARHGAP21, Q5T5U3; [2]): 4.05 | pKd (DLG1_1, Q12959; [2]): below the threshold | pKd (DLG4_2, P78352; [2]): below the threshold | pKd (FRMPD4, Q14CM0; [2]): 3.88 | pKd (GRID2IP_2, A4D2P6; [2]): below the threshold | pKd (GRIP2_3, Q9C0E4; [2]): below the threshold | pKd (GRIP2_4, Q9C0E4; [2]): below the threshold | pKd (GRIP2_5, Q9C0E4; [2]): below the threshold | pKd (GRIP2_6, Q9C0E4; [2]): below the threshold | pKd (IL16_1, Q14005; [2]): below the threshold | pKd (IL16_3, Q14005; [2]): below the threshold | pKd (Inadl_10, Q8NI35; [2]): below the threshold | pKd (LNX1_1, Q8TBB1; [2]): below the threshold | pKd (LNX1_3, Q8TBB1; [2]): below the threshold | pKd (LNX2_3, Q8N448; [2]): below the threshold | pKd (MAGI2_4, Q86UL8; [2]): below the threshold | pKd (MAGI2_5, Q86UL8; [2]): below the threshold | pKd (MPP2, Q14168; [2]): below the threshold | pKd (MPP7, Q5T2T1; [2]): below the threshold | pKd (NHERF3_1, Q5T2W1; [2]): 3.79 | pKd (PCLO, Q9Y6V0; [2]): below the threshold | pKd (PDZRN3_1, Q9UPQ7; [2]): below the threshold | pKd (PTPN3, P26045; [2]): 3.92 | pKd (SCRIB_3, Q14160; [2]): below the threshold | pKd (SNTG1, Q9NSN8; [2]): below the threshold | pKd (TJP1_3, Q07157; [2]): below the threshold
